Data on two substances can be found in paper PMC10316081.

Assay [1] has as its target Rag GTPase heterodimer (RagA-RagC), wild type (human) (UniProt Q7L523).
Assay [2] shares this target. The source holds these as a separate data set.
Assay [3] has as its target RagA-RagC(D201R) (human) (UniProt Q7L523).
For assay [4], the target named is RagA-RagC(D201R, D205K) (human) (UniProt Q7L523).
The target in assay [5] is RagA-RagC(D205K) (human) (UniProt Q7L523).
The target in assay [6] is RagA-RagC(D205A) (human) (UniProt Q7L523).
Assay [7] concerns the target RagA-RagC(D201A) (human) (UniProt Q7L523).
In assay [8] the target is RagA-RagC(D201A, D205A) (human) (UniProt Q7L523).

For the substance “GATOR1[Depdc5(Y775A, R1407D)] (from UniProt O75140 1-1603; Q8WTW4 1-380; Q12980 1-569) (complex)”, in assay [1], the KM of GATOR1-stimulated multiple turnover GTP hydrolysis, fold increase against GATOR1[Depdc5(Y775A)] (fold increase) is 8; the kcat of GATOR1-stimulated multiple turnover GTP hydrolysis, fold decrease against GATOR1[Depdc5(Y775A)] (fold decrease) turned out to be 8; the kcat/KM of GATOR1-stimulated multiple turnover GTP hydrolysis, fold decrease against GATOR1[Depdc5(Y775A)] (fold decrease) stood at 64. The kcat of GATOR1-stimulated single turnover GTP hydrolysis by the Rag GTPase heterodimer (singly loaded with GTP) in assay [2] is 0.00015 s⁻¹.
Take “GATOR1[Depdc5(Y775A)] (from UniProt O75140 1-1603; Q8WTW4 1-380; Q12980 1-569) (complex)”: the kcat/KM of GATOR1[Depdc5(Y775A)]-stimulated multiple turnover GTP hydrolysis, fold decrease against wild-type Rag GTPases (fold decrease) stood at 7 in assay [3]; 80 in assay [4]; 22 in assay [5]; 4 in assay [6]; 2 in assay [7]; 7 in assay [8]. Moreover, in assay [1], the kcat of GATOR1-stimulated multiple turnover GTP hydrolysis by the Rag GTPase heterodimer (dual-loaded with GTP) amounted to 0.00183 s⁻¹. Further, in assay [2], the kcat of GATOR1-stimulated single turnover GTP hydrolysis by the Rag GTPase heterodimer (singly loaded with GTP) is 0.000267 s⁻¹.
